Experimental data: the supplement of paper PMC10126150
± gives the standard deviation of the averaged measurements.

Tested on: ATP
Experiment: switch fluorescence ratio, 500 uM ATP over buffer (Cy3 cluster intensity, sum of 5 cycles each) (fold (ratio)); higher = stronger signal-on switching upon ATP binding; sequences stand for … in TCGTCGGCAGCGTCAGATGTGTATAAGAGACAGTTTTTTTTTTTTTTTTTTTTTTTTT…TC
Details: aptamer strand: ATP DNA aptamer (quencher-CACCTGGGGGAGTATTGCGGAGGAAGG + anchor), 100 nM annealed; ATP concentration: 500 uM
Summary of the method: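 Exposure to 500 uM ATP lasted 15 min at 22 °C before imaging, and a selection-buffer image was taken beforehand, for Cy3-labelled switching-strand clusters on a modified Illumina MiSeq flow-cell annealed to 100 nM quencher-labelled ATP aptamer. Five buffer/ATP cycles were run with NaOH stripping and re-annealing between them. The fluorescence ratio per cluster is summed target-cycle over summed buffer-cycle Cy3 intensity, averaged per switch-domain sequence. Clusters outside 100-1000 RFU were excluded.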

**Q.** ATGGTAAGGT was tested. Which switch fluorescence ratio did it give?
**A.** 1 ± 0.014

**Q.** Which switch fluorescence ratio does the source give for ACTTTGAATC here?
**A.** 0.998 ± 0.053

**Q.** With GTGGGTTGGA as the sequence, how does the switch fluorescence ratio read?
**A.** 0.993 ± 0.033

**Q.** Which switch fluorescence ratio does the source give for GGTATTTTAA here?
**A.** 1.04 ± 0.027

**Q.** Which switch fluorescence ratio does the source give for ATTGCGGGTT here?
**A.** 0.981 ± 0.013

**Q.** How did the switch fluorescence ratio turn out when CCCCTTAGCG was run?
**A.** 1.09 ± 0.0067

**Q.** For CGGATCCAGG, which switch fluorescence ratio is on record?
**A.** 1.35 ± 0.042

**Q.** GGATGGTGCA was tested. Which switch fluorescence ratio did it give?
**A.** 0.94 ± 0.062

**Q.** Which switch fluorescence ratio does the source give for GATCGGAATA here?
**A.** 1.87 ± 0.091

**Q.** How did the switch fluorescence ratio turn out when TCGGAATTGT was run?
**A.** 0.9992 ± 0.0056

**Q.** Which switch fluorescence ratio does the source give for CGAAGGATTT here?
**A.** 1.003 ± 0.0041

**Q.** For GTTGTCTTTG, which switch fluorescence ratio is on record?
**A.** 1.01 ± 0.031

**Q.** For TCGGGGACCG, which switch fluorescence ratio is on record?
**A.** 0.952 ± 0.052

**Q.** With CCCGAATCCT as the sequence, how does the switch fluorescence ratio read?
**A.** 1.06 ± 0.034

**Q.** For TGTGGTCTGA, which switch fluorescence ratio is on record?
**A.** 1.01 ± 0.09

**Q.** For TTTTTGTTTC, which switch fluorescence ratio is on record?
**A.** 1.02 ± 0.046

**Q.** With TGGGGAGTAA as the sequence, how does the switch fluorescence ratio read?
**A.** 1.015 ± 0.0092

**Q.** Which switch fluorescence ratio does the source give for TAGGTGACTG here?
**A.** 0.982 ± 0.037

**Q.** Which switch fluorescence ratio does the source give for GCGCTGGGGG here?
**A.** 1.07 ± 0.081

**Q.** GCTCTGTTTT was tested. Which switch fluorescence ratio did it give?
**A.** 1 ± 0.011

**Q.** For AAACGGGCGG, which switch fluorescence ratio is on record?
**A.** 0.996 ± 0.045

**Q.** GGGACGGTAG was tested. Which switch fluorescence ratio did it give?
**A.** 1.04 ± 0.034

**Q.** With TCGTGCGGTT as the sequence, how does the switch fluorescence ratio read?
**A.** 1.01 ± 0.032

**Q.** With GAGGCTGTTT as the sequence, how does the switch fluorescence ratio read?
**A.** 1.01 ± 0.035

**Q.** For TTGTGGCTTA, which switch fluorescence ratio is on record?
**A.** 0.98 ± 0.036

**Q.** Which switch fluorescence ratio does the source give for CGGGAAATGG here?
**A.** 1.007 ± 0.0064

**Q.** With GGGGCCGAGA as the sequence, how does the switch fluorescence ratio read?
**A.** 0.987 ± 0.012

**Q.** For ATTGTGGGTT, which switch fluorescence ratio is on record?
**A.** 1 ± 0.021

**Q.** For AATCGGGTAG, which switch fluorescence ratio is on record?
**A.** 1 ± 0.014

**Q.** How did the switch fluorescence ratio turn out when TTGTGCGAAA was run?
**A.** 1.01 ± 0.059

**Q.** TCGGGGGCGT was tested. Which switch fluorescence ratio did it give?
**A.** 1.03 ± 0.038

**Q.** TAACATGTGG was tested. Which switch fluorescence ratio did it give?
**A.** 1.017 ± 0.01

**Q.** With AGTGAGTCTG as the sequence, how does the switch fluorescence ratio read?
**A.** 0.995 ± 0.053

**Q.** How did the switch fluorescence ratio turn out when AGGGGTCCTT was run?
**A.** 0.997 ± 0.026

**Q.** For CAGTGGGTGG, which switch fluorescence ratio is on record?
**A.** 0.982 ± 0.027

**Q.** Which switch fluorescence ratio does the source give for GGGTTCCTAG here?
**A.** 1.01 ± 0.041

**Q.** How did the switch fluorescence ratio turn out when TTTGGGGGTG was run?
**A.** 1.02 ± 0.038

**Q.** Which switch fluorescence ratio does the source give for AGTTTTAAGC here?
**A.** 1.01 ± 0.043

**Q.** How did the switch fluorescence ratio turn out when AGCCGGATCA was run?
**A.** 0.9931 ± 0.0056

**Q.** For ATGCCGGGGT, which switch fluorescence ratio is on record?
**A.** 1.05 ± 0.013

**Q.** Which switch fluorescence ratio does the source give for ATTTGGTTTC here?
**A.** 0.991 ± 0.025

**Q.** Which switch fluorescence ratio does the source give for TCATGGTCTG here?
**A.** 1 ± 0.012

**Q.** With TTTGCAAGTA as the sequence, how does the switch fluorescence ratio read?
**A.** 1.2 ± 0.3

**Q.** How did the switch fluorescence ratio turn out when AATCTCTGGG was run?
**A.** 0.992 ± 0.0015

**Q.** With ATGCAGCATG as the sequence, how does the switch fluorescence ratio read?
**A.** 1.021 ± 0.0038

**Q.** Which switch fluorescence ratio does the source give for GTTTTATATG here?
**A.** 0.978 ± 0.011

**Q.** How did the switch fluorescence ratio turn out when GGGATAGGCT was run?
**A.** 1.02 ± 0.021

**Q.** How did the switch fluorescence ratio turn out when TTTGGTGGAT was run?
**A.** 0.9794 ± 0.0058

**Q.** GGATCAGAGA was tested. Which switch fluorescence ratio did it give?
**A.** 1.08 ± 0.023

**Q.** Which switch fluorescence ratio does the source give for ATATTAGTCT here?
**A.** 1.001 ± 0.0035

**Q.** With GTTTTTAGGG as the sequence, how does the switch fluorescence ratio read?
**A.** 1.02 ± 0.021

**Q.** Which switch fluorescence ratio does the source give for TAATACTTCG here?
**A.** 1.03 ± 0.012

**Q.** How did the switch fluorescence ratio turn out when CCCTAGTGTG was run?
**A.** 2.97 ± 2.6

**Q.** Which switch fluorescence ratio does the source give for CTTTGAGACG here?
**A.** 0.978 ± 0.068

**Q.** For GTTGCGTTTT, which switch fluorescence ratio is on record?
**A.** 0.9852 ± 0.0095

**Q.** For ATGTGTGGCT, which switch fluorescence ratio is on record?
**A.** 1.01 ± 0.022

**Q.** Which switch fluorescence ratio does the source give for TACTTCTTTT here?
**A.** 0.958 ± 0.015

**Q.** AAGGGTAGTT was tested. Which switch fluorescence ratio did it give?
**A.** 0.997 ± 0.028

**Q.** For CAGTCGCCAG, which switch fluorescence ratio is on record?
**A.** 1.02 ± 0.0024

**Q.** With CCGATGGGGA as the sequence, how does the switch fluorescence ratio read?
**A.** 1.156 ± 0.0049

**Q.** With TATGGGCAGG as the sequence, how does the switch fluorescence ratio read?
**A.** 1.04 ± 0.022

**Q.** For TTCTATTTTT, which switch fluorescence ratio is on record?
**A.** 1.03 ± 0.024

**Q.** With TTTGTGGGCC as the sequence, how does the switch fluorescence ratio read?
**A.** 1.03 ± 0.093

**Q.** How did the switch fluorescence ratio turn out when TTTTTAAACT was run?
**A.** 0.9921 ± 0.0076

**Q.** How did the switch fluorescence ratio turn out when TGCCGCAGGT was run?
**A.** 1.01 ± 0.043

**Q.** How did the switch fluorescence ratio turn out when GTCACTAGTG was run?
**A.** 1.028 ± 0.0026

**Q.** For TAGTAGGGGA, which switch fluorescence ratio is on record?
**A.** 1.01 ± 0.039

**Q.** With GCTATAGTCG as the sequence, how does the switch fluorescence ratio read?
**A.** 1.022 ± 0.0027

**Q.** How did the switch fluorescence ratio turn out when AATGGATTTC was run?
**A.** 1 ± 0.029

**Q.** Which switch fluorescence ratio does the source give for GAAACGAATT here?
**A.** 1.02 ± 0.018

**Q.** How did the switch fluorescence ratio turn out when GGGTCAGGTG was run?
**A.** 3.44 ± 0.48

**Q.** TAATTAAATT was tested. Which switch fluorescence ratio did it give?
**A.** 0.9767 ± 0.0046

**Q.** With TACGTTTTAA as the sequence, how does the switch fluorescence ratio read?
**A.** 0.9938 ± 0.0087

**Q.** How did the switch fluorescence ratio turn out when GATTTGATGT was run?
**A.** 1 ± 0.03

**Q.** How did the switch fluorescence ratio turn out when CGTTGTTACA was run?
**A.** 1.04 ± 0.018

**Q.** CGGCGTTATG was tested. Which switch fluorescence ratio did it give?
**A.** 0.988 ± 0.014

**Q.** For ACTTTGCGTT, which switch fluorescence ratio is on record?
**A.** 0.992 ± 0.011
